Test results taken from publication PMC6166713.

Assays:
Test in all cases: BLI; Octet Red; GST-WASP variants loaded on anti-GST sensors (10 μg/ml), dipped into a dilution range of Cdc42·GMPPNP; 50 mM Tris-HCl pH 7.5, 150 mM NaCl, 1 mM MgCl2, 0.02% Tween 20, 0.1% BSA, 0.05% sodium azide, 25 °C; GST-alone sensors subtracted
[1] = target: GST-WASP(201–321) K230A/K231A (UniProt P42768)
[2] = target: GST-WASP(201–321) K226A (UniProt P42768)
[3] = target: GST-WASP(201–321) R227A (UniProt P42768)
[4] = target: GST-WASP(201–321) K225A (UniProt P42768)
[5] = target: GST-WASP(201–321) K230A/K231A/K232A (UniProt P42768)
[6] = target: GST-WASP(201–321) K225A/K226A (UniProt P42768)
[7] = target: GST-WASP(201–321) K225A/R227A (UniProt P42768)
[8] = target: GST-WASP(201–321) K226A/R227A (UniProt P42768)
[9] = target: GST-WASP(201–321) K232A (UniProt P42768)
[10] = target: GST-WASP(201–321) K225A/K226A/R227A/K230A/K231A/K232A (UniProt P42768)
[11] = target: GST-WASP(201–321) K230A/K232A (UniProt P42768)
[12] = target: GST-WASP(201–321) wild type (UniProt P42768)

Kd [1]: 162 nM
koff [1]: 0.0684 s⁻¹
kon [1]: 422000 M⁻¹ s⁻¹
Kd [2]: 54.4 nM
koff [2]: 0.0338 s⁻¹
kon [2]: 676000 M⁻¹ s⁻¹
Kd [3]: 49 nM
koff [3]: 0.0281 s⁻¹
kon [3]: 630000 M⁻¹ s⁻¹
Kd [4]: 83.5 nM
koff [4]: 0.0468 s⁻¹
kon [4]: 671000 M⁻¹ s⁻¹
Kd [5]: 307 nM
koff [5]: 0.0914 s⁻¹
kon [5]: 300000 M⁻¹ s⁻¹
Kd [6]: 59.6 nM
koff [6]: 0.0295 s⁻¹
kon [6]: 490000 M⁻¹ s⁻¹
Kd [7]: 81.5 nM
koff [7]: 0.0371 s⁻¹
kon [7]: 456000 M⁻¹ s⁻¹
Kd [8]: 74.8 nM
koff [8]: 0.0372 s⁻¹
kon [8]: 497000 M⁻¹ s⁻¹
Kd [9]: 134 nM
koff [9]: 0.0546 s⁻¹
kon [9]: 407000 M⁻¹ s⁻¹
Kd [10]: 734 nM
koff [10]: 0.145 s⁻¹
kon [10]: 198000 M⁻¹ s⁻¹
Kd [11]: 142 nM
koff [11]: 0.067 s⁻¹
kon [11]: 484000 M⁻¹ s⁻¹
Kd [12]: 63.7 nM
koff [12]: 0.0417 s⁻¹
kon [12]: 691000 M⁻¹ s⁻¹
Substance: Cdc42 Δ7 Q61L (from UniProt P60953 1-191) (natural protein)
